From PMC11785930

Molecular target: STAT3 (protein used in the ELISA) (UniProt P42227)
Assay: ELISA; documented protocol (ref. 44); which protein was coated and the conditions are not told

Kd: 120 nM
Substance: Becn1 (protein used in the ELISA) (from UniProt O88597 1-448) (natural protein)
